Laboratory results taken from PMC9239255, “Switching off Bacterial Flagellar Biogenesis by YdiU-Mediated UMPylation of FlhDC”.

Target: T1, FlhDC (native, un-UMPylated) (Escherichia coli K-12 MG1655, UniProt P0A8S9;P0ABY7 1-116;1-192)
T1 sequence 1: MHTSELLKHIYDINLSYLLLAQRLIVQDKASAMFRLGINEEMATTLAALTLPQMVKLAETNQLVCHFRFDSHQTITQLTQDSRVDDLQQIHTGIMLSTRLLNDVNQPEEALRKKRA
T1 sequence 2: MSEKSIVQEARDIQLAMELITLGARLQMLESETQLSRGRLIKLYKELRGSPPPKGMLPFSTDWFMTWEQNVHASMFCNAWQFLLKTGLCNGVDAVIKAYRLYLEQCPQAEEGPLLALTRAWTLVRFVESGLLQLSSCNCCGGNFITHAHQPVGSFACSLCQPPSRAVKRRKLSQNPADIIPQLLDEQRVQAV
Experiment: EMSA; 10 nM DNA; shift at protein:DNA ratio greater than 1
Conditions: protein: recombinant; tags: none apparent (pET21b; reverse primer carries stop codon); chain copies: 4;2; label: 5'-FAM on strand 1 (Methods call both oligos FAM-flhB); blunt

B1: pflhB (flhB promoter) (dsDNA)
DNA 1: ATTAACGCCATAAACCCCGCCTTTTTTACCGCTTACTCTGCCTATTGGCGT
DNA 2: ACGCCAATAGGCAGAGTAAGCGGTAAAAAAGGCGGGGTTTATGGCGTTAAT
  binding result: binds
